Source: publication PMC6937562

Legend:
[1] = target: PspCN-anchored FH (on the HJEM6 SPR chip) (human | Streptococcus pneumoniae) (UniProt P08603); assay: SPR; homemade HJEM6 chip, FH (54 RU) captured by clicked sumo-Cys-PspCN-azide (18 RU); C3b flowed (1 μM to 3.9 nM); 1:1 steady-state model
[2] = target: C3b (human) (UniProt P01024); assay: SPR; homemade HJEM7 chip, 143 RU C3b amine-coupled and 174 RU 3′-sialyllactose clicked on; FH (2 μM to 3.9 nM) or FH 19–20 (10 μM to 3.9 nM) flowed; Biacore T200, 25 °C, HBS-P pH 7.4; 1:1 steady-state model
[3] = target: C3b (human) (UniProt P01024); assay: SPR; homemade HJEM7 chip (50% OH, 25% COOH, 25% propargyl), 144 RU C3b amine-coupled; FH (2 μM to 3.9 nM) or FH 19–20 (10 μM to 3.9 nM) flowed; Biacore T200, 25 °C, HBS-P pH 7.4; 1:1 steady-state model
[4] = target: C3b (human) (UniProt P01024); assay: AFM force-distance measurements; Cys-PspCN thiol-coupled to the SAM on the AFM probe tip, alone or with FH anchored to it; partner amine-coupled to the SAM on a gold wafer; PBS, laboratory at 22 °C; single (type 3) detachment events
[5] = target: C3b (human) (UniProt P01024); assay: SPR; C1 chip with immobilised C3b; cycles of a mixture of FB and FD, then C3, injected at 10 μl/min; Biacore T200, 25 °C, HBS-P pH 7.4 with 1 mM MgCl2

“C3b (from UniProt P01024 23-667; P01024 749-1663) (natural protein)” showed a Kd [1] of 70 nM.
Work on FH 19–20 (domain or fragment) yielded a Kd [2] of 2600 nM and a Kd [3] of 350 nM.
In the case of “PspCN-anchored FH (on the AFM probe tip) (from UniProt P08603 19-1231) (complex)”, the detachment force of single events [4] is reported as 0.1 to 0.26 nN and the mean detachment force [4] is reported as 0.17 nN.
With factor B (natural protein) the percent of C3b molecules binding FB [5] was < 80%.
